Laboratory results from article PMC7586219.

Columns and labels:
[1] = biological target: Orbicella faveolata caspase-3b (Orbicella faveolata); experiment: SEC; Superdex75 Increase 10/300GL; protein 1-5 mg/ml, 200 ul loaded; 30 mM potassium phosphate, pH 7.5, 1 mM DTT; column calibrated with the LMW calibration kit; protomer to dimer
[2] = biological target: Porites astreoides caspase-3 (Porites astreoides); experiment: as above

| Substance | stoichiometry N [1] | stoichiometry N [2] |
| --- | --- | --- |
| Orbicella faveolata caspase-3b (enzyme) | 2 | – |
| Porites astreoides caspase-3 (enzyme) | – | 2 |
